The target in experiment [1] is T1, purified human monomeric 4-1BB (UniProt Q07011 24-186). As to the kind of experiment: SPR; 25 °C. Background: SPR reads the build-up and loss of mass on a sensor chip optically.
Experiment [2] concerns the target T1, purified human monomeric 4-1BB. As to the kind of experiment: SPR; 25 °C, steady state affinity.

T1 sequence (Q07011 other isoform, or with tags, fused parts or gaps): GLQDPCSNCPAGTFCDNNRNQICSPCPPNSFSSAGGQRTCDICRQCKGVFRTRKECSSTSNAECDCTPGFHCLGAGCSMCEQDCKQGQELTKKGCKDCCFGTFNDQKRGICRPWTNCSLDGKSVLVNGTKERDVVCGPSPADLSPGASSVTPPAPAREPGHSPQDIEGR

B1: v20036 (antibody, V domains shown)
VH: QVQLQESGPGLVQPTQSLSITCTVSGFSLISYGVHWVRQSPGKGLEWLGVIWSGGSTDYNAAFISRLSISKDNSKSQVFFKMNSLQADDTAIYYCARNPLTATVMDYWGQGTSVTVSS
VL: DIVMTQSQKFMSTSVGDRVSVTCKASQNVGTNVAWYQQKPGQSPKALIYSASYRDSGVPDRFTGSGSGTDFTLTISNVQSEDLAEYLCQQYNSYPLTFGAGTKLELKR
Usually Kd stands for the free concentration of one partner at which half of the binding sites on the other are occupied at equilibrium, for simple one-to-one binding. Molecule B1 returned a Kd in experiment [1] of 256 nM.

B2: v28696 (antibody, V domains shown)
VH: QVQLQESGPGLVKPSETLSLTCTVSGFSLISYGVHWIRQPPGKGLEWIGVIWSGGSTDYNPSLKSRVTISVDTSKNQFSLKLSSVTAADTAVYYCARNPLTATVMDYWGQGTLVTVSS
VL: DIQMTQSPSSLSASVGDRVTITCRASQNVGTNVAWYQQKPGKAPKALIYSASYRDSGVPSRFSGSGSGTDFTLTISSLQPEDFATYYCQQYNSYPLTFGGGTKVEIKR
B2 gave a Kd in experiment [2] of 687 nM.
